Literature values, collected in PMC6620384.

Molecular target: UNC5B-Fc (UniProt Q8IZJ1)
Assay: SPR

Chain of UniProt Q8IZJ1 (Q8IZJ1 27-377): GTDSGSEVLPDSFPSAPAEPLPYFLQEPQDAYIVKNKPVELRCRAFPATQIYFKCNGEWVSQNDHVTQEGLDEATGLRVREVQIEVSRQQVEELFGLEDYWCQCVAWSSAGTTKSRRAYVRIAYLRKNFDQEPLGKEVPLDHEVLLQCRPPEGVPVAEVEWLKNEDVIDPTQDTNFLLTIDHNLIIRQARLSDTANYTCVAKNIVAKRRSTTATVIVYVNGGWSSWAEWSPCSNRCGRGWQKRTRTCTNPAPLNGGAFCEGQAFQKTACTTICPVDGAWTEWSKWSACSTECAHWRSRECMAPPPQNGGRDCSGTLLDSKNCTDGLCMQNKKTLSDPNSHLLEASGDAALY

Kd: 0.012 µM
Substance: Robo4-Fc (from UniProt Q8WZ75)
